In PMC7251214 one finds stoichiometry N data, which are given here for one substance.

This assay deals with MtrD multidrug efflux pump from N. gonorrhoeae strain CR.103 (MtrD_(CR103)) (Neisseria gonorrhoeae) (UniProt Q51073). Kind of assay: cryo-EM structure; single-particle cryo-EM of purified MtrD_(CR103) in lipid nanodiscs (MSP 1E3D1), 2 uM, 20 mM Tris-HCl pH 7.5, 100 mM NaCl; one structure with fortuitously bound hydrolyzed ampicillin, one after incubation with 10 uM erythromycin for 2 h; C1 symmetry.

The stoichiometry N is a count of units in the complex or per binding partner. The substance “MtrD multidrug efflux pump from N. gonorrhoeae strain CR.103 (MtrD_(CR103)) (from UniProt Q51073 1-1067) (natural protein)” had a stoichiometry N of 3.
